From patent US7687474B2, “Nitroreductase enzymes” (The Board of Trustees of the Leland Stanford Junior …, priority 2005, dated 2010)
Numbering of substitutions follows the chain as printed. Names may count otherwise.

Experiments:
[1] = test system: SL 7838; experiment: Effect of prodrugs on the delivery strain SL 7838; conditions: CB 1954 15 μM
Source text: We tested the S. typhimurium strain 7838 (SL 7838), transformed with different plasmids (see Methods), as a potential vehicle to attain this objective. IPTG was used to induce the wild type and mutant enzymes encoded by the plasmids. In these experiments, the prodrugs were activated by bacteria producing the specified enzymes instead of, as in previous experiments, the added enzymes.

[2] = target: T1, ChrR (Escherichia coli, UniProt P0AGE6, E57D/G167S); type: biochemical, E. coli; conditions: CNOB versus CB 1954
T1 construct: made in house; host or cells: E. coli BL21 (DE3)
Source text: To evaluate if CNOB competes with CB 1954 on the active site of the enzyme we performed a competition assay.

[3] = test system: HeLa cells; experiment: Confocal imaging of CNOB reduction in HeLa cells infected with SL 7838 expressing GFP and Y6; type: cell-based, Human; conditions: HeLa cells infected with SL 7838 expressing GFP and Y6 (FIG. 8)
[4] = test system: HeLa cells; conditions: for HeLa cell killing by CNOB: CNOB as prodrug, pure protein (FIG. 7)
[5] = test system: HeLa cells; experiment: Cell survival assay using SL 7838 to deliver the wild type or evolved enzymes; type: cell-based, Human; conditions: for amount of bacteria required / killing of surface-adhered HeLa-luc cells: SL 7838 expressing the enzyme, 15 μM CB 1954, 1 h + 3 h incubation, luciferase read-out (FIG. 6)
Source text: Cell survival assay, using SL 7838 to deliver the wild type or evolved enzymes. SL 7838 contains deletions in the aroA and sopE genes. This strain is non-pathogenic in immunocompetent mice, but can colonize and persist in solid tumors. The strain was transformed with appropriate plasmids to express the yief (now chrR), nfsA or theY6 (now chrR6)-encoding yieFY6 gene. It was also transformed with a vector containing the lux operon, expressing the bacterial luciferase (product of the luxR gene) and its substrate. HeLa cells stably transfected to express firefly luciferase were added to black walled 96-well plates at a density of 1000 cells well^−1. Once the cells had attached, a dilution series of non-transformed SL 7838 or SL 7838 transformed with plasmids expressing the appropriate genes (Table 1) was added to the plates; 0.5 mM IPTG was added to induce the genes on the plasmids. After 1 h incubation, 15 μM CB 1954 was added. Light output per well produced from bacterial luciferase (no additional substrate added) or bacterial and firefly luciferase (following addition of 2 μl of 30 mg ml^−1 luciferin per well) was measured on an IVIS50 system (Xenogen Corp.). Percentage HeLa cell survival was determined by calculating firefly luciferase expression (total light output—bacterial light output) relative to wells containing unchallenged HeLa cells or HeLa cells treated with 70% ethanol. All experiments were performed at least in triplicate; error bars in the figures are SEM.
SL 7838 as a delivery vehicle to tumor cells. […] We tested the S. typhimurium strain 7838 (SL 7838), transformed with different plasmids (see Methods), as a potential vehicle to attain this objective. IPTG was used to induce the wild type and mutant enzymes encoded by the plasmids. […]
Further analysis was performed to test the efficiency of SL 7838 to deliver the enzymes to surface-adhered HeLa cells. […] After a further 3 h incubation period the firefly luciferase substrate (luciferin) was added, and the light output was used to quantify HeLa cell survival (FIG. 6).

[6] = test system: HeLa cells; experiment: Viability test: prodrug activated by purified enzyme, loss of HeLa cell viability
Experimental: Viability tests. As mentioned in the Results section, these involved two incubation periods, prodrug activation, followed by assay of the toxic moiety generated by determining the loss of HeLa cell viability. […] Following prodrug reduction at 37° C., 0.5 ml of fresh HeLa cells (˜0.5-1×10^5) were added. The duration of the prodrug reduction was 30 min in all experiments; the HeLa cell exposure periods were as specified in the text. After the latter incubation, 20 μl of the color reagent, CellTiter 96®AqueousOne (PROMEGA Inc) were added to 100 μl aliquots of the reaction mixture. Following an additional 1 h of incubation, A490 was measured in a BioTek microplate S330 reader.
Prodrug activation by wild type YieF and the evolved enzymes. […] The experiments involved two incubation periods. In the first period, the enzyme and the drug were incubated to generate the toxic species; in the second period, which was initiated with the addition of HeLa cells to the reaction mixture, the extent of drug activation was inferred from the loss of HeLa cell viability. In the experiments described in this section, both the prodrug reduction and the subsequent cell exposure periods were of 30 min duration, and the enzyme and drug concentrations were 50 μg ml^−1 and 15 μM, respectively. […]

## NC(=O)c1cc(N2CC2)c([N+](=O)[O-])cc1[N+](=O)[O-] [CB 1954, 5-aziridinyl-2,4-dinitrobenzamide]
[1]
  effect on replication of SL7838: did not inhibit replication

## O=c1c(Cl)c2oc3cc([N+](=O)[O-])ccc3nc-2c2ccccc12 [CNOB]
[2]
  mode of inhibition in competition assay: competitive inhibitors of each other
[3]
  bystander effect (red fluorescence in uninfected cells): effective bystander effect
[4]; compared with CB1954
  prodrug efficiency in in vitro cytotoxicity assays: same efficiency as CB1954

B1: Y6: evolved YieF enzyme with four substitutions: V120A, Y128N, T160N and Q175L (protein, UniProt P0AGE6 1-188, looked up, variant V120A Y128N T160N Q175L)
Quinone reductase: MSEKLQVVTLLGSLRKGSFNGMVARTLPKIAPASMEVNALPSIADIPLYDADVQQEEGFPATVEALAEQIRQADGVVIVTPEYNYSVPGGLKNAIDWLSRLPDQPLAGKPVLIQTSSMGAIGGARCQNHLRQILVFLDAMVMNKPEFMGGVIQNKVDPQNGEVIDQGTLDHLTGLLTAFGEFIQRVKI
[5]
  amount of bacteria required / killing of surface-adhered HeLa-luc cells: at least an order of magnitude less bacteria
[5]; in the presence of CB 1954 (15 μM), enzyme expressed by SL 7838 bacteria, IPTG induced (FIG. 5)
  reduction in survival of HeLa cells: 90%
[4]
  HeLa cell killing by CNOB: more active
[6]; 15 μM MMC or CB 1954, 50 μg ml^−1 enzyme (FIG. 1)
  greater reduction in HeLa cells survival compared to the controls: ~90%
[6]; MMC or CB 1954 (FIG. 1)
  activity for prodrug reduction relative to wild type: improved activity for prodrug reduction

B2: YieF: native E. coli NAD(P)H oxidoreductase ChrR (formerly called YieF), SEQ ID NO:1 (protein)
chain: B1 Quinone reductase with E57D, A120V, N128Y, N160T, G167S, L175Q
modifications: E. coli
[5]
  amount of bacteria required / killing of surface-adhered HeLa-luc cells: scarcely greater than seen in controls
[4]
  HeLa cell killing by CNOB: significant increase of cell killing compared to the control
